Measurements taken from IntAct's records for PubMed 19966800.

Biological target: caga_helpy cagA (UniProt P55980)
Sequence (P55980 whole entry): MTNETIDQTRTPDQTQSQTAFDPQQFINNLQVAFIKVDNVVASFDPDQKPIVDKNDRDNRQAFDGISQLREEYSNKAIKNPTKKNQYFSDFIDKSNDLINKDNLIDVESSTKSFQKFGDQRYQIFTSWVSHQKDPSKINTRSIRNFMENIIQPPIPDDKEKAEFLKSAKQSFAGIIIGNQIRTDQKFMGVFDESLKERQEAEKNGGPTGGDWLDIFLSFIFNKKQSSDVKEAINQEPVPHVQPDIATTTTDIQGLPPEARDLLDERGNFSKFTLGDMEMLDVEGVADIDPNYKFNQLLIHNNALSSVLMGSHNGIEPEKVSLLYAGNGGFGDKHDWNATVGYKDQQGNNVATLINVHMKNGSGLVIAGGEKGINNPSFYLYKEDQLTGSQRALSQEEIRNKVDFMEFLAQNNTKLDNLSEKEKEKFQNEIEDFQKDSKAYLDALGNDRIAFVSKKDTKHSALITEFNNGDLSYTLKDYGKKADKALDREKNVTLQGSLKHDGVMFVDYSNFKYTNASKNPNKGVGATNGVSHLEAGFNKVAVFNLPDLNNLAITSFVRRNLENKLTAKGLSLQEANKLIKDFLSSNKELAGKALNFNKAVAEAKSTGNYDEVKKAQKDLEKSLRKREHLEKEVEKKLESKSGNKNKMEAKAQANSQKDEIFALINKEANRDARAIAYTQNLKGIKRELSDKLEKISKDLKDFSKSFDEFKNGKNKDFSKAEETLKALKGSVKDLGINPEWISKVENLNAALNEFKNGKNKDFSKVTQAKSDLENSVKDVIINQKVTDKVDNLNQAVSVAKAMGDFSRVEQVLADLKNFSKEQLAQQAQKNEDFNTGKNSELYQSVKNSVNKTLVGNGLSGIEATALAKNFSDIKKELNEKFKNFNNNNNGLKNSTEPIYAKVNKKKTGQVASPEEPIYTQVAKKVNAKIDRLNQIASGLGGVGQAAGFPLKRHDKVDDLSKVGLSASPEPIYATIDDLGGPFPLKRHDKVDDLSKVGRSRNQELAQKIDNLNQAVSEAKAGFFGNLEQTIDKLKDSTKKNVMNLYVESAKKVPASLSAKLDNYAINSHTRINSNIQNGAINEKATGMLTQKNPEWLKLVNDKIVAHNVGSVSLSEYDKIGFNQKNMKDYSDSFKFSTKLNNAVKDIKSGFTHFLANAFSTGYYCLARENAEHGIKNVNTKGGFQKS

Serine/threonine-protein kinase MARK2 (Homo sapiens), Q7KZI7 E136G;F138G;D139G
effect of a mutation on the interaction: disrupting interaction
